The target in test [1] is T1, human CD30 (human, UniProt P28908 19-595).
T1 construct: also called huCD30; TNFRSF8
T1 sequence: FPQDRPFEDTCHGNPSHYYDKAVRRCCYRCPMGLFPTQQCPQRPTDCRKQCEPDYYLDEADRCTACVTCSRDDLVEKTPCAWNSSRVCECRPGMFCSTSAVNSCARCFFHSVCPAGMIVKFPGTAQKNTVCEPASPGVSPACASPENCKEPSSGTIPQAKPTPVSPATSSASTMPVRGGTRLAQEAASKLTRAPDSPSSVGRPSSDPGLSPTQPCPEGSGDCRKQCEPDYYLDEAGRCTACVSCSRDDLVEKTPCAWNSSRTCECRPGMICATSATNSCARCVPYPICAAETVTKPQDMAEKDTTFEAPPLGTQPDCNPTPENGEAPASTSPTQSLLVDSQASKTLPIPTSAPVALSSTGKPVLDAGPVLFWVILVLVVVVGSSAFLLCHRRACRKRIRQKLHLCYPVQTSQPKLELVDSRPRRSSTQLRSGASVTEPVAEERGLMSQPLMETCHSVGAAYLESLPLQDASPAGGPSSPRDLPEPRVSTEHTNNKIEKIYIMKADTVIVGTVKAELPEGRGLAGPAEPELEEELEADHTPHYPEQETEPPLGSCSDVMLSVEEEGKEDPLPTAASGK
The experiment in a line: flow cytometry, HDLM-2 cells. In a few lines:
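CD3×CD30 bispecific antibodies, 3-fold serial dilutions from 0.0046 to 10 μg/mL, incubated with 3×10⁴ SU-DHL-1 (ALCL) or HDLM-2 (HL) cells for 30 min at 4 °C, then secondary antibody 30 min at 4 °C. Live cells gated by FSC/SSC and TO-PRO-3 exclusion; binding curves fitted by four-parameter sigmoidal regression.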
(In general: Flow cytometry measures light scatter and fluorescence of single cells or particles in a stream.)

Test [2] deals with T1, human CD30. The experiment in a line: flow cytometry, HDLM-2 cells, experiment N = 1.
The target of test [3] is T2, cynomolgus monkey (Macaca fascicularis) CD30 (cynomolgus monkey, UniProt P28908 19-595 (human entry)).
T2 construct: also called mfCD30
T2 chain: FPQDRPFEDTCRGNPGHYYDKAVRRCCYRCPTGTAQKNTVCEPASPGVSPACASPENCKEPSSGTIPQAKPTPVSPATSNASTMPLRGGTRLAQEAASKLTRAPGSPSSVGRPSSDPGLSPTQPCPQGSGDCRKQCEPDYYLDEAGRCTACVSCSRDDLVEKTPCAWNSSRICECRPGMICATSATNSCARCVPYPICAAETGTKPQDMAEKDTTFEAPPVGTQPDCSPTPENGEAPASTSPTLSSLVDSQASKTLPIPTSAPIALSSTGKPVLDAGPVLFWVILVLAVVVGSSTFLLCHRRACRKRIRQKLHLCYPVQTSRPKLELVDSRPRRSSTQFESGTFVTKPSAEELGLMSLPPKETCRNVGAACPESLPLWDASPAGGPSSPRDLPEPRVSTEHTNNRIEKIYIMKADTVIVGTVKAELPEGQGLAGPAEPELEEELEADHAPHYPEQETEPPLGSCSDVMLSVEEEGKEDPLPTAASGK
The test can be described thus: flow cytometry, HEK293 cells transfected with mfCD30. The method, then: (§1) Cells (3×10⁴ cells/well) were incubated in polystyrene 96-well round-bottom plates (Thermo Scientific, cat. no. 163320) with serial dilutions of antibodies (ranging from 0.0002 to 50 μg/mL in 4-fold dilution steps) in 50 μL staining buffer at 4° C. for 30 min. Experiments were performed in technical duplicate. After washing twice in staining buffer, cells were incubated in 50 μL secondary antibody at 4° C. for 30 min. As a secondary antibody, R-PE-conjugated goat-anti-human IgG (Jackson ImmunoResearch, UK; cat. no. 109⁻¹¹⁶-098) diluted 1:200 in staining buffer was used. Cells were washed twice in staining buffer, resuspended in 30 μL staining buffer containing 0.4% EDTA and the ToPro-3 viability marker (Invitrogen, cat. no. T3605) diluted 1:10,000. Cells were analyzed on an iQue Screener (Intellicyt Corporation, USA). Binding curves were analyzed using non-linear regression (sigmoidal dose-response with variable slope) using GraphPad Prism V9.0.0 software (GraphPad Software, San Diego, CA, USA).

Test [4] deals with T1, human CD30. The experiment in a line: flow cytometry, L-82 cells (ALCL), range of 2 tests. How it is done: (§2) Cells (3×10⁴ cells/well) were incubated in polystyrene 96-well round-bottom plates (Greiner bio-one, cat. no. 650180) with serial dilutions of antibodies (range 0.0046 to 10 μg/mL in 3-fold dilution steps) in 50 μL staining buffer at 4° C. for 30 min. After washing twice in staining buffer, cells were incubated with 50 μL secondary antibody at 4° C. for 30 min. […] Next, cells were washed twice in staining buffer, resuspended in 100 μL staining buffer supplemented with TO-PRO-3 iodide (Thermo Fisher Scientific; cat. no. T3605; 1:8000 dilution) and analyzed on a FACSCelesta flow cytometer (BD Biosciences, USA). Live cells were gated based on FSC/SSC and absence of TOPRO-3 staining. Binding curves were analyzed by non-linear regression of log-transformed data (sigmoidal dose-response with variable slope, four parameters) using GraphPad Prism V7.02 software (GraphPad Software, San Diego, CA, USA).

The target of test [5] is T1, human CD30. The experiment in a line: flow cytometry, NCEB-1 cells (MCL), range of 3 tests. The method, then: as §2
The target in test [6] is T1, human CD30. The test can be described thus: flow cytometry, HDLM-2 cells (HL), average of 3 tests. How it is done: as §2
Test [7] addresses T1, human CD30. The test can be described thus: flow cytometry, SUP-M2 cells (ALCL), range of 3 tests. How it is done: as §2
Test [8] deals with T1, human CD30. The experiment in a line: flow cytometry, SUP-M2 cells (ALCL), average of 3 tests. The method, then:
as §2

Test [9] addresses T1, human CD30. The experiment in a line: flow cytometry, HEK293 cells transfected with human CD30. How it is done: as §1
The target in test [10] is T1, human CD30. The experiment in a line: flow cytometry, SUP-T1 cells (TLL), average of 2 tests; SUP-T1 cells (TLL), average of 2 tests. The method, then:
as §2

For orientation: EC50 (read off the curve) means the midpoint of the concentration-response curve. For orientation: EC50 means the concentration that produces a half-maximal response.

B1: bsG1-huCD3-FEALxCD30-MDX060-FEAR (bispecific antibody, human IgG1, kappa, lambda)
heavy 1: not shown
light 1: not shown
heavy 2: QVQLQQWGAGLLKPSETLSLTCAVYGGSFSAYYWSWIRQPPGKGLEWIGDINHGGGTNYNPSLKSRVTISVDTSKNQFSLKLNSVTAADTAVYYCASLTAYWGQGSLVTVSSASTKGPSVFPLAPSSKSTSGGTAALGCLVKDYFPEPVTVSWNSGALTSGVHTFPAVLQSSGLYSLSSVVTVPSSSLGTQTYICNVNHKPSNTKVDKRVEPKSCDKTHTCPPCPAPEFEGGPSVFLFPPKPKDTLMISRTPEVTCVVVAVSHEDPEVKFNWYVDGVEVHNAKTKPREEQYNSTYRVVSVLTVLHQDWLNGKEYKCKVSNKALPAPIEKTISKAKGQPREPQVYTLPPSREEMTKNQVSLTCLVKGFYPSDIAVEWESNGQPENNYKTTPPVLDSDGSFFLYSRLTVDKSRWQQGNVFSCSVMHEALHNHYTQKSLSLSPG
light 2: DIQMTQSPTSLSASVGDRVTITCRASQGISSWLTWYQQKPEKAPKSLIYAASSLQSGVPSRFSGSGSGTDFTLTISSLQPEDFATYYCQQYDSYPITFGQGTRLEIKRTVAAPSVFIFPPSDEQLKSGTASVVCLLNNFYPREAKVQWKVDNALQSGNSQESVTEQDSKDSTYSLSSTLTLSKADYEKHKVYACEVTHQGLSSPVTKSFNRGEC
notes: also called bsG1-huCD3xCD30-MDX060
As for B1, in the test with human CD30 [1], the “EC50 (read off the curve)” value is roughly 0.3 µg/mL. This molecule returned an EC50 in the test with human CD30 [2] of 0.145 µg/mL.

B2: bsG1-huCD3-FEALxCD30-MDX060-FERR (bispecific antibody, human IgG1, kappa, lambda)
heavy 1: not shown
light 1: not shown
heavy 2: QVQLQQWGAGLLKPSETLSLTCAVYGGSFSAYYWSWIRQPPGKGLEWIGDINHGGGTNYNPSLKSRVTISVDTSKNQFSLKLNSVTAADTAVYYCASLTAYWGQGSLVTVSSASTKGPSVFPLAPSSKSTSGGTAALGCLVKDYFPEPVTVSWNSGALTSGVHTFPAVLQSSGLYSLSSVVTVPSSSLGTQTYICNVNHKPSNTKVDKRVEPKSCDKTHTCPPCPAPEFERGPSVFLFPPKPKDTLMISRTPEVTCVVVDVSHEDPEVKFNWYVDGVEVHNAKTKPREEQYNSTYRVVSVLTVLHQDWLNGKEYKCKVSNKALPAPIEKTISKAKGQPREPQVYTLPPSREEMTKNQVSLTCLVKGFYPSDIAVEWESNGQPENNYKTTPPVLDSDGSFFLYSRLTVDKSRWQQGNVFSCSVMHEALHNHYTQKSLSLSPG
light 2: DIQMTQSPTSLSASVGDRVTITCRASQGISSWLTWYQQKPEKAPKSLIYAASSLQSGVPSRFSGSGSGTDFTLTISSLQPEDFATYYCQQYDSYPITFGQGTRLEIKRTVAAPSVFIFPPSDEQLKSGTASVVCLLNNFYPREAKVQWKVDNALQSGNSQESVTEQDSKDSTYSLSSTLTLSKADYEKHKVYACEVTHQGLSSPVTKSFNRGEC
notes: Bispecific IgG1 made by controlled Fab-arm exchange; also called bsIgG1-huCD3-FEALxCD30-MDX060-FERR; bsG1-huCD3×CD30-MDX060
As for B2, the binding result in test [3] was “binds”. Also, the EC50 in the test with human CD30 [4] is 0.184 to 0.215 µg/mL; in the test with human CD30 [5], 0.118 to 0.2 µg/mL; with human CD30 [6], 0.167 µg/mL; with human CD30 [7] it was 0.134 to 0.223 µg/mL; with human CD30 [8], 0.167 µg/mL; with human CD30 [10], 0.346 µg/mL. Also, the half-maximal effective concentration (EC50 (read off the curve)) with human CD30 [9] was roughly 0.1 µg/mL.
